T1: PUF4 RNA-binding domain (Saccharomyces cerevisiae, UniProt P25339 537-888)
T1 sequence: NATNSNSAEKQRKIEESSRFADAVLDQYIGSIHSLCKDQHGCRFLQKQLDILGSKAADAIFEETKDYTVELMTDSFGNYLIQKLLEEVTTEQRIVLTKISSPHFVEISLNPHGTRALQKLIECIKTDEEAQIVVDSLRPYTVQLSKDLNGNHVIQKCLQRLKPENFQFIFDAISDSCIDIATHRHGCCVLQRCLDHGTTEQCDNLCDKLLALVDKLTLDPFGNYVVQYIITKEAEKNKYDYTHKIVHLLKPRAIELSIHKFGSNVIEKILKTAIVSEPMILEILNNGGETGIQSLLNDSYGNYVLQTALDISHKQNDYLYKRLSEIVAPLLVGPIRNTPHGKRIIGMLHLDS


The binders below were run against T1, PUF4 RNA-binding domain (assay: Mg; RNA-MaP; 20 mM Na-HEPES pH 7.4, 30 mM KOAc, 0.75 mM MgCl2, 0.1% Tween-20, 5% glycerol, 0.1 mg/mL BSA, 2 mM DTT; 25 C; 0.0125-409.6 nM protein). Conditions: tags: N-His6-TEV cleaved; C-SNAP kept, Cy3B-labelled; label: tethered on chip by stalled RNA polymerase.

Binder | Kd [nM]
ACAAACAAUAUAUAUAUUACAAAC (ssRNA) [Id_ii_S3_P3E.3_K3.2_C3.2_[C-2A]_[T-1A]_H3.2_A3.1_F3.1_T3.2_[A10T]] | 94
ACAAACGAUAUAUAUAACACAAAC (ssRNA) [Id_ii_S3_P3E.3_K3.2_C3.2_[C-2G]_[T-1A]_H3.2_A3.1_F3.1_T3.2_[T9A]_[A10C]] | 969
ACAAACACUAUAUAUACGACAAAC (ssRNA) [Id_ii_S3_P3E.3_K3.2_C3.2_[C-2A]_[T-1C]_H3.2_A3.1_F3.1_T3.2_[T9C]_[A10G]] | 1040
ACAAACAUUAUAUAUAUUACAAAC (ssRNA) [Id_ii_S3_P3E.3_K3.2_C3.2_[C-2A]_H3.2_A3.1_F3.1_T3.2_[A10T]] | 33.2
ACAAACUUUAUAUAUAUUACAAAC (ssRNA) [Id_ii_S3_P3E.3_K3.2_C3.2_[C-2T]_H3.2_A3.1_F3.1_T3.2_[A10T]] | 34.5
ACAAACUCUAUAUAUAAAACAAAC (ssRNA) [Id_ii_S3_P3E.3_K3.2_C3.2_[C-2T]_[T-1C]_H3.2_A3.1_F3.1_T3.2_[T9A]] | 932
ACAAACGAUAUAUAUAAAACAAAC (ssRNA) [Id_ii_S3_P3E.3_K3.2_C3.2_[C-2G]_[T-1A]_H3.2_A3.1_F3.1_T3.2_[T9A]] | 1080
ACAAACAUUAUAUAUAAAACAAAC (ssRNA) [Id_ii_S3_P3E.3_K3.2_C3.2_[C-2A]_H3.2_A3.1_F3.1_T3.2_[T9A]] | 868
UCUCUUUGUAUUUUAAUCUCUU (ssRNA) [Ib_S1_P5E.1_K5.1_C5.1_H5.1_A5.1_[A7T]_F5.1_[T9A]_T5.1] | 3.42
ACAAACAAUAUAUAUAAGACAAAC (ssRNA) [Id_ii_S3_P3E.3_K3.2_C3.2_[C-2A]_[T-1A]_H3.2_A3.1_F3.1_T3.2_[T9A]_[A10G]] | 1090
ACAAACCGUAUAUAUAAGACAAAC (ssRNA) [Id_ii_S3_P3E.3_K3.2_C3.2_[T-1G]_H3.2_A3.1_F3.1_T3.2_[T9A]_[A10G]] | 796
ACAAACGUUAUAUAUAUUACAAAC (ssRNA) [Id_ii_S3_P3E.3_K3.2_C3.2_[C-2G]_H3.2_A3.1_F3.1_T3.2_[A10T]] | 154
ACAAACGCUAUAUAUACUACAAAC (ssRNA) [Id_ii_S3_P3E.3_K3.2_C3.2_[C-2G]_[T-1C]_H3.2_A3.1_F3.1_T3.2_[T9C]_[A10T]] | 34.2
ACAAACUUUAUAUAUAAUACAAAC (ssRNA) [Id_ii_S3_P3E.3_K3.2_C3.2_[C-2T]_H3.2_A3.1_F3.1_T3.2_[T9A]_[A10T]] | 149
ACAAACACUAUAUAUAUCACAAAC (ssRNA) [Id_ii_S3_P3E.3_K3.2_C3.2_[C-2A]_[T-1C]_H3.2_A3.1_F3.1_T3.2_[A10C]] | 541
ACAAACUCUAUAUAUACCACAAAC (ssRNA) [Id_ii_S3_P3E.3_K3.2_C3.2_[C-2T]_[T-1C]_H3.2_A3.1_F3.1_T3.2_[T9C]_[A10C]] | 771

Binder | Kd [nM]
ACAAACCGUAUAUAUACCACAAAC (ssRNA) [Id_ii_S3_P3E.3_K3.2_C3.2_[T-1G]_H3.2_A3.1_F3.1_T3.2_[T9C]_[A10C]] | 1540
ACAAACAAUAUAUAUAAUACAAAC (ssRNA) [Id_ii_S3_P3E.3_K3.2_C3.2_[C-2A]_[T-1A]_H3.2_A3.1_F3.1_T3.2_[T9A]_[A10T]] | 98.1
ACAAACAUUAUAUAUAUAACAAAC (ssRNA) [Id_ii_S3_P3E.3_K3.2_C3.2_[C-2A]_H3.2_A3.1_F3.1_T3.2] | 462
ACAAACGAUAUAUAUAGUACAAAC (ssRNA) [Id_ii_S3_P3E.3_K3.2_C3.2_[C-2G]_[T-1A]_H3.2_A3.1_F3.1_T3.2_[T9G]_[A10T]] | 62.3
ACAAACAUUAUAUAUAACACAAAC (ssRNA) [Id_ii_S3_P3E.3_K3.2_C3.2_[C-2A]_H3.2_A3.1_F3.1_T3.2_[T9A]_[A10C]] | 708
ACAAACGAUAUAUAUAAGACAAAC (ssRNA) [Id_ii_S3_P3E.3_K3.2_C3.2_[C-2G]_[T-1A]_H3.2_A3.1_F3.1_T3.2_[T9A]_[A10G]] | 786
UCUCUUUGUAUUUUGAUCUCUU (ssRNA) [Ib_S1_P5E.1_K5.1_C5.1_H5.1_A5.1_[A7T]_F5.1_[T9G]_T5.1] | 17.1
ACAAACGCUAUAUAUAUCACAAAC (ssRNA) [Id_ii_S3_P3E.3_K3.2_C3.2_[C-2G]_[T-1C]_H3.2_A3.1_F3.1_T3.2_[A10C]] | 836
ACAAACGAUAUAUAUAAUACAAAC (ssRNA) [Id_ii_S3_P3E.3_K3.2_C3.2_[C-2G]_[T-1A]_H3.2_A3.1_F3.1_T3.2_[T9A]_[A10T]] | 115
UCUCUUUGUAUUCUCAUCUCUU (ssRNA) [Ib_S1_P5E.1_K5.1_C5.1_H5.1_A5.1_[A7C]_F5.1_[T9C]_T5.1] | 29.8
ACAAACACUAUAUAUAUAACAAAC (ssRNA) [Id_ii_S3_P3E.3_K3.2_C3.2_[C-2A]_[T-1C]_H3.2_A3.1_F3.1_T3.2] | 873
ACAAACACUAUAUAUAAGACAAAC (ssRNA) [Id_ii_S3_P3E.3_K3.2_C3.2_[C-2A]_[T-1C]_H3.2_A3.1_F3.1_T3.2_[T9A]_[A10G]] | 450
ACAAACUCUAUAUAUAUCACAAAC (ssRNA) [Id_ii_S3_P3E.3_K3.2_C3.2_[C-2T]_[T-1C]_H3.2_A3.1_F3.1_T3.2_[A10C]] | 493
ACAAACAGUAUAUAUACCACAAAC (ssRNA) [Id_ii_S3_P3E.3_K3.2_C3.2_[C-2A]_[T-1G]_H3.2_A3.1_F3.1_T3.2_[T9C]_[A10C]] | 1920
ACAAACACUAUAUAUAAAACAAAC (ssRNA) [Id_ii_S3_P3E.3_K3.2_C3.2_[C-2A]_[T-1C]_H3.2_A3.1_F3.1_T3.2_[T9A]] | 1080
ACAAACAGUAUAUAUAACACAAAC (ssRNA) [Id_ii_S3_P3E.3_K3.2_C3.2_[C-2A]_[T-1G]_H3.2_A3.1_F3.1_T3.2_[T9A]_[A10C]] | 522

From paper PMC9352680, “A comprehensive thermodynamic model for RNA binding by the Saccharomyces cerevisiae Pumilio protein PUF4”
